Measured values published in IntAct's records for PubMed 10230800.

B1: Slowpoke-binding protein (Drosophila melanogaster (Fruit fly)), Q8IPH9 (parent)
chain: MFKFNKAAQQQRIDNRNSAVTGHDPFVRPPVPEKKVRNIMKKLHKANGLKRSNSAIEFDVSALTAANRRQIYSSNRSASSEQDNSDLSEHSEKSPLVSARLDNLARLFFSKSMPAETGSRDTIDSVLTTRPNIKYQYSALDSGNGIVERSPRERAQREKALNATQEWIQGANGRYEVIAHLDEIGSRHGKNWFLVTDASVRTDRLQTLLPLPPDCVAFEDLPPNECAREILMELLGSLHHPYIYPVLDLGFLRNSSYNYACLVTPFNSRGSLKDLIYKAQWNEPWARKYTRKPNGLPVSQVQRLGRQILEALLFLKERGFPLHGHLHSGNVILQNGAARLSGLENGLLGLSSRINAVMWSRSVTEIENVDIVCFGHLLYEMCTGQELTTPKPSMRVLEMELQHYPQIGQTRKQILEILGLIFEPPSGVCPSVEDLVLCDLFRSIDLRELRGPCFSTIKPSLSRSTLNLLQAVKKRQCASLGHSLSEANSPCTPPSTPHDRRTGVLPAPYEVFRMY
partner: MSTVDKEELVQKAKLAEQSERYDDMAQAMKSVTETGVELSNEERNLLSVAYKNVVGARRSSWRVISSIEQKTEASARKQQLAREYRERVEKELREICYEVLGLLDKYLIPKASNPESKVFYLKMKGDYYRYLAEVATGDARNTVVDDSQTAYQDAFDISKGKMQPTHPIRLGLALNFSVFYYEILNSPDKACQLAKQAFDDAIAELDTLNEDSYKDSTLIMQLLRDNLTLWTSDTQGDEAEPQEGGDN

Variants of: B1
Settings: with 1433z_drome 14-3-3zeta

Row | effect of a mutation on the interaction | Variant
1 | decreasing interaction strength | MFKFNKAAQQQRIDNRNSAVTGHDPFVRPPVPEKKVRNIMKKLHKANGLKRSNAAIEFDVSALTAANRRQIYSSNRSAASEQDNSDLSEHSEKSPLVSARLDNLARLFFSKSMPAETGSRDTIDSVLTTRPNIKYQYSALDSGNGIVERSPRERAQREKALNATQEWIQGANGRYEVIAHLDEIGSRHGKNWFLVTDASVRTDRLQTLLPLPPDCVAFEDLPPNECAREILMELLGSLHHPYIYPVLDLGFLRNSSYNYACLVTPFNSRGSLKDLIYKAQWNEPWARKYTRKPNGLPVSQVQRLGRQILEALLFLKERGFPLHGHLHSGNVILQNGAARLSGLENGLLGLSSRINAVMWSRSVTEIENVDIVCFGHLLYEMCTGQELTTPKPSMRVLEMELQHYPQIGQTRKQILEILGLIFEPPSGVCPSVEDLVLCDLFRSIDLRELRGPCFSTIKPSLSRSTLNLLQAVKKRQCASLGHSLSEANSPCTPPSTPHDRRTGVLPAPYEVFRMY [S54A;S79A]
